Measured values as given in the supplement of paper PMC10567573.

B1: TSPAN10 (parent)
chain: EGCGPPLRRWLRANLAASGGYAIA

Variants of: B1
Assay: protein stability index of a GFP-peptide fusion (GPS, HEK-293T) (PSI 1-6); higher = more stable
Details: c terminus: a fixed tail appended
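Also: lentivirally expressed fusions sorted by FACS into six bins by GFP to DsRed ratio, PSI derived from sequencing read proportions per bin multiplied by bin number.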

Variant | protein stability index
EGCGPPLRRWLRANLAASGGCAIA | 2.36
EGCGPPLRRWLRANLAASGGQAIA | 2.75
EGCGPPLRRWLRANLAASGGSAIA | 2.7
EGCGPPLRRWLRANLAASGGPAIA | 2.07
EGCGPPLRRWLRANLAASGGEAIA | 2.4
EGCGPPLRRWLRANLAASGGIAIA | 1.81
EGCGPPLRRWLRANLAASGGKAIA | 3.04
EGCGPPLRRWLRANLAASGGWAIA | 1.47
EGCGPPLRRWLRANLAASGGTAIA | 2.53
EGCGPPLRRWLRANLAASGGVAIA | 2.53
EGCGPRLRRWLRANLAASGGYAIA | 1.95
EGCGPMLRRWLRANLAASGGYAIA | 1.84
EGCGPHLRRWLRANLAASGGYAIA | 1.62
EGCGPVLRRWLRANLAASGGYAIA | 1.89
EGCGPDLRRWLRANLAASGGYAIA | 1.94
EGCGPPLRRTLRANLAASGGYAIA | 3.01
EGCGPPLRRVLRANLAASGGYAIA | 1.89
EGCGPPLRRSLRANLAASGGYAIA | 2.81
EGCGPPLRRMLRANLAASGGYAIA | 2.62
EGCGPPLRRELRANLAASGGYAIA | 3.4
EGCGPPLRRYLRANLAASGGYAIA | 2.44
EGCGPPLRRQLRANLAASGGYAIA | 2.24
EGCGPPLRRWLRNNLAASGGYAIA | 2.19
EGCGPPLRRWLRTNLAASGGYAIA | 2.25

Variant | protein stability index
EGCGPPLRRWLRLNLAASGGYAIA | 2.21
EGCGPPLRRWLRHNLAASGGYAIA | 2.26
EGCGPPLRRWLRQNLAASGGYAIA | 2.83
EGCGPPLRRWLRFNLAASGGYAIA | 2.46
EGCGPPLRRWLRENLAASGGYAIA | 3.18
EGCGPPLRRWLRWNLAASGGYAIA | 2.03
EGCGPPLRRWLRINLAASGGYAIA | 1.67
EGCGPPLRRWLRDNLAASGGYAIA | 1.83
EGCGPPLRRWLRPNLAASGGYAIA | 2.87
EGCGPPLRRWLRRNLAASGGYAIA | 1.62
EGCGPPLRRWLRANLAASGGYAGA | 2.3
EGCGPPLRRWLRANLAASGGYARA | 2.6
EGCGPPLRRWLRANLAASGGYASA | 2.63
EGCGPPLRRWLRANLAASGGYAMA | 1.21
EGCGPPLRRWLRANLAASGGYANA | 2.92
EGCGPPLRRWLRANLAASGGYALA | 2.16
EGCGPPLRRWLRANLAASGGYAYA | 1.73
EGCGPPLRRWLRANLAASGGYAFA | 2.17
EGCGPPLRRWLRANLAASGGYAPA | 2.45
EGCGPPLRRWLRANLAASGGYAKA | 2.96
LGCGPPLRRWLRANLAASGGYAIA | 1.81
PGCGPPLRRWLRANLAASGGYAIA | 1.71
SGCGPPLRRWLRANLAASGGYAIA | 2.37
DGCGPPLRRWLRANLAASGGYAIA | 2.06

Variant | protein stability index
IGCGPPLRRWLRANLAASGGYAIA | 1.81
KGCGPPLRRWLRANLAASGGYAIA | 1.42
AGCGPPLRRWLRANLAASGGYAIA | 1.63
EGCGPPLRRWLPANLAASGGYAIA | 2.5
EGCGPPLRRWLAANLAASGGYAIA | 1.75
EGCGPPLRRWLDANLAASGGYAIA | 1.8
EGCGPPLRRWLLANLAASGGYAIA | 3.2
EGCGPPLRRWLGANLAASGGYAIA | 1.82
EGCGPPLRRWLIANLAASGGYAIA | 2.82
EGCGPPLRRWLFANLAASGGYAIA | 2.29
EGCRPPLRRWLRANLAASGGYAIA | 2.44
EGCMPPLRRWLRANLAASGGYAIA | 1.83
EGCWPPLRRWLRANLAASGGYAIA | 2.15
EGCDPPLRRWLRANLAASGGYAIA | 2.1
EGCLPPLRRWLRANLAASGGYAIA | 1.58
EGCVPPLRRWLRANLAASGGYAIA | 2.25
EGCHPPLRRWLRANLAASGGYAIA | 2.58
EGCQPPLRRWLRANLAASGGYAIA | 2
EGCGPPLRRWLRANLAASHGYAIA | 2.32
EGCGPPLRRWLRANLAASWGYAIA | 3.26
EGCGPPLRRWLRANLAASTGYAIA | 1.74
EGCGPPLRRWLRANLAASAGYAIA | 1.11
EGCGPPLRRWLRANLAASVGYAIA | 1.67
EGCGPPLRRWLRANLAASKGYAIA | 1.89

Variant | protein stability index
EGCGPPLRRWLRANLAFSGGYAIA | 1.35
EGCGPPLRRWLRANLANSGGYAIA | 2.96
EGCGPPLRRWLRANLALSGGYAIA | 1.63
EGCGPPLRRWLRANLASSGGYAIA | 1.84
EGCGPPLRRWLRANLATSGGYAIA | 1.4
EGCGPPLRRWLRANLAVSGGYAIA | 1.4
EGCGPPLRRWLRANLAMSGGYAIA | 2.2
EGCGPPLRRWLRANLARSGGYAIA | 1.44
EGCGGPLRRWLRANLAASGGYAIA | 2.08
EGCGMPLRRWLRANLAASGGYAIA | 1.65
EGCGEPLRRWLRANLAASGGYAIA | 3.75
EGCGKPLRRWLRANLAASGGYAIA | 2.03
EGCGCPLRRWLRANLAASGGYAIA | 3.5
EGCGAPLRRWLRANLAASGGYAIA | 2.08
EGCGHPLRRWLRANLAASGGYAIA | 1.7
EGCGPPCRRWLRANLAASGGYAIA | 1.87
EGCGPPKRRWLRANLAASGGYAIA | 1.97
EGCGPPVRRWLRANLAASGGYAIA | 2.3
EGCGPPPRRWLRANLAASGGYAIA | 2.27
EGCGPPRRRWLRANLAASGGYAIA | 3.1
EGCGPPHRRWLRANLAASGGYAIA | 2.39
EGCGPPWRRWLRANLAASGGYAIA | 2.05
